US20200199241A1 (Chugai, published 2020)

T1: human FcγRIIa(R) (human, UniProt P12318 36-217)
T1 construct: also called FcgRIIaR; hFcgRIIa(R)
T1 chain: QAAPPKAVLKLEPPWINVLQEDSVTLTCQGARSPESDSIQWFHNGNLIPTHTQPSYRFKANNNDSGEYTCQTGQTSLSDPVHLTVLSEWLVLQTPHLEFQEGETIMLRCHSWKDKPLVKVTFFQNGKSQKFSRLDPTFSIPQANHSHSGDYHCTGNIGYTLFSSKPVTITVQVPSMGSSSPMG

T2: human FcγRIIa(H) (human, UniProt P12318 36-217)
T2 construct: also called FcgRIIaH; hFcgRIIa(H)
T2 sequence: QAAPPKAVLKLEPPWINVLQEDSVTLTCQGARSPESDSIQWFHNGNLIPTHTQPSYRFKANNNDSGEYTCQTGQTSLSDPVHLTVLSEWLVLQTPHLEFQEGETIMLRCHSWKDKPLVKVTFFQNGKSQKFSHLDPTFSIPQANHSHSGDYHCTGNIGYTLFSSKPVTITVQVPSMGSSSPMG

T3: human FcγRIIb (human, UniProt P31994 43-217, limits assumed)
T3 construct: also called FcgRIIb; hFcgRIIb
T3 sequence: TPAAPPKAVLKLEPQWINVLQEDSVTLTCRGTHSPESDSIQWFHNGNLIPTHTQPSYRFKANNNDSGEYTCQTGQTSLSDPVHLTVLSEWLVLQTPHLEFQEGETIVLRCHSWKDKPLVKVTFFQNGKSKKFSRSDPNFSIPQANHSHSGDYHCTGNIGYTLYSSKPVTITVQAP

B1: GpH7-B3 P271T/GpL16-k0 (antibody, human IgG1)
heavy: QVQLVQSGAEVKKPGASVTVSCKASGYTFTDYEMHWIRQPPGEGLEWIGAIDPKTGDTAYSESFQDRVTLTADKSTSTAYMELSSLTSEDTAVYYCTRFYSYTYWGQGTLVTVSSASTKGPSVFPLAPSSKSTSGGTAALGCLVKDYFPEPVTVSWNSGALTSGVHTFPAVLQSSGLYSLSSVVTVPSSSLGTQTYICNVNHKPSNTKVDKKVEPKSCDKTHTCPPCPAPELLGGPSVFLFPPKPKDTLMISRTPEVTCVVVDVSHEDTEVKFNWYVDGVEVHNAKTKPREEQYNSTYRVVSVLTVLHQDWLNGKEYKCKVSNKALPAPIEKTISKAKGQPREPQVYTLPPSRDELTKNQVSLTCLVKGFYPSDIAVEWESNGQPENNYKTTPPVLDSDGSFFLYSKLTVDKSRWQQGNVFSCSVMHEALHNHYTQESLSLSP
light: DIVMTQSPLSLPVTPGEPASISCQASESLVHSNRNTYLHWYLQKPGQSPQLLIYKVSNRFSGVPDRFSGSGSGTDFTLKISRVEAEDVGVYYCSQNTHVPPTFGQGTKVEIE
notes: B3 variant; copies: 2 + 2
B2: GpH7-B3 P329M/GpL16-k0 (antibody, human IgG1)
heavy: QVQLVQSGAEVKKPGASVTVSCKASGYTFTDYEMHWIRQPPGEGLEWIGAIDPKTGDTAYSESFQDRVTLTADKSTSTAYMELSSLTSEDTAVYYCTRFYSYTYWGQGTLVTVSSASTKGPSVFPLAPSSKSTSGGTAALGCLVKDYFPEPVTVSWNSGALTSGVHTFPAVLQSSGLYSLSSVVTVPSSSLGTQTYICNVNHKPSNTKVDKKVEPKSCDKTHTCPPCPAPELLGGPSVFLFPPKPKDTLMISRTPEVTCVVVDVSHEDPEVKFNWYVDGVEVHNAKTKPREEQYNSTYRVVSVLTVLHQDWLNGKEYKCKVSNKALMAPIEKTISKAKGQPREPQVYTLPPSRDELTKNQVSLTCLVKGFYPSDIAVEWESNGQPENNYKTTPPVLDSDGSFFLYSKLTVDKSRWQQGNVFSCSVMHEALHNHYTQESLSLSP
light: DIVMTQSPLSLPVTPGEPASISCQASESLVHSNRNTYLHWYLQKPGQSPQLLIYKVSNRFSGVPDRFSGSGSGTDFTLKISRVEAEDVGVYYCSQNTHVPPTFGQGTKVEIE
notes: B3 variant; copies: 2 + 2
B3: GpH7-B3 P271S/GpL16-k0 (antibody, human IgG1)
heavy: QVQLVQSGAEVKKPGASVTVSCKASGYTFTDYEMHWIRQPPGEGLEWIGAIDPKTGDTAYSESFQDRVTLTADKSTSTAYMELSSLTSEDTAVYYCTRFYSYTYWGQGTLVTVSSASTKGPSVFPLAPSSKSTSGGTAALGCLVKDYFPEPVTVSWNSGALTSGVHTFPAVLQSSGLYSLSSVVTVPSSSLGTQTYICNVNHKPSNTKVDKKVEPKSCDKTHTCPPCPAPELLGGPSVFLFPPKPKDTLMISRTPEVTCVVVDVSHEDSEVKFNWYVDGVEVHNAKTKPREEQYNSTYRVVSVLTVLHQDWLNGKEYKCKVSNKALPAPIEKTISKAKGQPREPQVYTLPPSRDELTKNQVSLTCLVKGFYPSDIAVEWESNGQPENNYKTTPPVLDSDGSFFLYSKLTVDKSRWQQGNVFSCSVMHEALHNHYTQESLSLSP
light: DIVMTQSPLSLPVTPGEPASISCQASESLVHSNRNTYLHWYLQKPGQSPQLLIYKVSNRFSGVPDRFSGSGSGTDFTLKISRVEAEDVGVYYCSQNTHVPPTFGQGTKVEIE
notes: B3 variant; copies: 2 + 2
B4: GpH7-B3 N325T/GpL16-k0 (antibody, human IgG1)
heavy: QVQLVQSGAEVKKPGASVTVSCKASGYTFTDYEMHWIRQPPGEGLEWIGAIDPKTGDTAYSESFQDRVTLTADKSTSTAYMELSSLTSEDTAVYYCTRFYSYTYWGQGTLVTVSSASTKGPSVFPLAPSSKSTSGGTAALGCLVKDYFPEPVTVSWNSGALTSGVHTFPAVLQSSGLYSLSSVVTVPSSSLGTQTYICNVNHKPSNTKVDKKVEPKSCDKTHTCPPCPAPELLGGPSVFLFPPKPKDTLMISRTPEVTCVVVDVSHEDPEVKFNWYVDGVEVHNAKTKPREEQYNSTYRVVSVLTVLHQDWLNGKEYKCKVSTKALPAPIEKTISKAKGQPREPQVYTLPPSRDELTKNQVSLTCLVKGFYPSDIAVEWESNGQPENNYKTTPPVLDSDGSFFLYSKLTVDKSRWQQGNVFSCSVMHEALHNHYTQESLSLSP
light: DIVMTQSPLSLPVTPGEPASISCQASESLVHSNRNTYLHWYLQKPGQSPQLLIYKVSNRFSGVPDRFSGSGSGTDFTLKISRVEAEDVGVYYCSQNTHVPPTFGQGTKVEIE
notes: B3 variant; copies: 2 + 2
B5: GpH7-B3 P329R/GpL16-k0 (antibody, human IgG1)
heavy: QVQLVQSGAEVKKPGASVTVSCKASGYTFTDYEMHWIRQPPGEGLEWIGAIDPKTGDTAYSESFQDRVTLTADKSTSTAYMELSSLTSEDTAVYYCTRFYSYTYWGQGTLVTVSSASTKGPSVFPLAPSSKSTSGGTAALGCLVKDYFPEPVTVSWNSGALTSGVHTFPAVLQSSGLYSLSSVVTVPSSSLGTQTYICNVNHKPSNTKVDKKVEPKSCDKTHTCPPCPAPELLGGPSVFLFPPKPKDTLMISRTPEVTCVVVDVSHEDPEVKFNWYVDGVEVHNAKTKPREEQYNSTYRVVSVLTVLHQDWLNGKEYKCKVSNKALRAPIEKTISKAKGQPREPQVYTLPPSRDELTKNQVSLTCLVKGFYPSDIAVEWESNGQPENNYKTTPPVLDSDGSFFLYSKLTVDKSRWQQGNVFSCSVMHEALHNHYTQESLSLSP
light: DIVMTQSPLSLPVTPGEPASISCQASESLVHSNRNTYLHWYLQKPGQSPQLLIYKVSNRFSGVPDRFSGSGSGTDFTLKISRVEAEDVGVYYCSQNTHVPPTFGQGTKVEIE
notes: B3 variant; copies: 2 + 2
B6: GpH7-B3 P271R/GpL16-k0 (antibody, human IgG1)
heavy: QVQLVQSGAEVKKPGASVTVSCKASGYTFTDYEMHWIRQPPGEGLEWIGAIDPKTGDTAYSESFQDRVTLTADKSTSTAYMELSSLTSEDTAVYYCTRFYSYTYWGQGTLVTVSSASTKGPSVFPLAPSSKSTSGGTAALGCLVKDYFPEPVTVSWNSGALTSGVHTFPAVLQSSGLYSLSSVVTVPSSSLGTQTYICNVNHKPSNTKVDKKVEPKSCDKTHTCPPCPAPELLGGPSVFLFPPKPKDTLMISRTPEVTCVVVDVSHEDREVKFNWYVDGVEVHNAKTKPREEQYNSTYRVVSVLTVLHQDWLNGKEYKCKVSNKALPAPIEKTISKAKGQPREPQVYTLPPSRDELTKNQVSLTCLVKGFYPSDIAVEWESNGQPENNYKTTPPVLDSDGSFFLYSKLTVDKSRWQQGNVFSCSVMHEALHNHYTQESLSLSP
light: DIVMTQSPLSLPVTPGEPASISCQASESLVHSNRNTYLHWYLQKPGQSPQLLIYKVSNRFSGVPDRFSGSGSGTDFTLKISRVEAEDVGVYYCSQNTHVPPTFGQGTKVEIE
notes: B3 variant; copies: 2 + 2
B7: GpH7-B3 N325V/GpL16-k0 (antibody, human IgG1)
heavy: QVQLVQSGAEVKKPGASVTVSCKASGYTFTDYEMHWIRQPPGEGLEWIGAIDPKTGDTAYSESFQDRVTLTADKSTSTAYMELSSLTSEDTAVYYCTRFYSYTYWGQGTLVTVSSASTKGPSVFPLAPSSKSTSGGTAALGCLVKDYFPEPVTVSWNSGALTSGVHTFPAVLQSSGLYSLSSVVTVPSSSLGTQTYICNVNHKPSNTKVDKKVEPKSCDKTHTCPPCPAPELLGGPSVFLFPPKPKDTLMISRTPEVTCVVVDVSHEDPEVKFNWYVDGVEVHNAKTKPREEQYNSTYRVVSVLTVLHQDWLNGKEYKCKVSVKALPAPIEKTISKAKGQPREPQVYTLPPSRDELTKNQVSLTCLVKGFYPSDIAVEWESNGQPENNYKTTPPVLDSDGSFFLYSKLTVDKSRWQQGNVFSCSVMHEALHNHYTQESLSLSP
light: DIVMTQSPLSLPVTPGEPASISCQASESLVHSNRNTYLHWYLQKPGQSPQLLIYKVSNRFSGVPDRFSGSGSGTDFTLKISRVEAEDVGVYYCSQNTHVPPTFGQGTKVEIE
notes: B3 variant; copies: 2 + 2
B8: GpH7-B3 P329L/GpL16-k0 (antibody, human IgG1)
heavy: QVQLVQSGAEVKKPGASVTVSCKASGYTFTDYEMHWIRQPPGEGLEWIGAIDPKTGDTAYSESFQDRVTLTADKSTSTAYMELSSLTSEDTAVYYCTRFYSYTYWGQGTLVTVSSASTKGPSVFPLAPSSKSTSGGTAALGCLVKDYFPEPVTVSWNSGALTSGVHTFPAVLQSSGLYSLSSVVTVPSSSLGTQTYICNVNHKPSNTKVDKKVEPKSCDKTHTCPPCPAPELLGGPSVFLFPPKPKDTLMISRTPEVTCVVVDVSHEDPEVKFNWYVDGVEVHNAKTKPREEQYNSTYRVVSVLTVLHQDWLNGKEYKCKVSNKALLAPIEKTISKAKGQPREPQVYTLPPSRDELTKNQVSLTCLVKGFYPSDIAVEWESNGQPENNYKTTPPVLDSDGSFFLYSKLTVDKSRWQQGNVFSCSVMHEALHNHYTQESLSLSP
light: DIVMTQSPLSLPVTPGEPASISCQASESLVHSNRNTYLHWYLQKPGQSPQLLIYKVSNRFSGVPDRFSGSGSGTDFTLKISRVEAEDVGVYYCSQNTHVPPTFGQGTKVEIE
notes: B3 variant; copies: 2 + 2
B9: GpH7-B3 P271F/GpL16-k0 (antibody, human IgG1)
heavy: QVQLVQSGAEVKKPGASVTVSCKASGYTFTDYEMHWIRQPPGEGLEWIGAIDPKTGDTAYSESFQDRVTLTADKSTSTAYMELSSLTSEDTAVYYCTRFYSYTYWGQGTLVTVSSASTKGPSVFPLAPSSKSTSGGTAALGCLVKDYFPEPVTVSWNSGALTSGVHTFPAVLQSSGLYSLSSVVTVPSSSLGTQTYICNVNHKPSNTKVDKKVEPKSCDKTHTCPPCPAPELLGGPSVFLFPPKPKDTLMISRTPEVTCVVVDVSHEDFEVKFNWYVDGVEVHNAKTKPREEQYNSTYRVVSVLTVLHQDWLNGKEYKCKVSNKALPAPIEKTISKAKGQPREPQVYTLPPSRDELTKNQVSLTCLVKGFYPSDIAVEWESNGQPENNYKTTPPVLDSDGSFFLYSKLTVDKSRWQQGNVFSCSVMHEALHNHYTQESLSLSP
light: DIVMTQSPLSLPVTPGEPASISCQASESLVHSNRNTYLHWYLQKPGQSPQLLIYKVSNRFSGVPDRFSGSGSGTDFTLKISRVEAEDVGVYYCSQNTHVPPTFGQGTKVEIE
notes: B3 variant; copies: 2 + 2
B10: GpH7-B3 P271H/GpL16-k0 (antibody, human IgG1)
heavy: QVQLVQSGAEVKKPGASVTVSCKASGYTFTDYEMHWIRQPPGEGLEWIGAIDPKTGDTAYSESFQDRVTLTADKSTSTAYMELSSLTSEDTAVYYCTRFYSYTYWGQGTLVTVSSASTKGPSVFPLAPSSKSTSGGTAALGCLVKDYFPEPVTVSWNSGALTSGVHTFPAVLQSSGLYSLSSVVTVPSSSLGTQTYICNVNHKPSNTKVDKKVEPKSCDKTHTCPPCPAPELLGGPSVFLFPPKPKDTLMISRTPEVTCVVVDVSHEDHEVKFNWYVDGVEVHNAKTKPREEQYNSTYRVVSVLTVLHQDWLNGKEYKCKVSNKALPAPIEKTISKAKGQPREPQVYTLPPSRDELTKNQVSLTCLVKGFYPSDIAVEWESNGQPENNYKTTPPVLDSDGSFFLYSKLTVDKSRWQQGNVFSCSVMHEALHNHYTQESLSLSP
light: DIVMTQSPLSLPVTPGEPASISCQASESLVHSNRNTYLHWYLQKPGQSPQLLIYKVSNRFSGVPDRFSGSGSGTDFTLKISRVEAEDVGVYYCSQNTHVPPTFGQGTKVEIE
notes: B3 variant; copies: 2 + 2
B11: GpH7-B3 P329I/GpL16-k0 (antibody, human IgG1)
heavy: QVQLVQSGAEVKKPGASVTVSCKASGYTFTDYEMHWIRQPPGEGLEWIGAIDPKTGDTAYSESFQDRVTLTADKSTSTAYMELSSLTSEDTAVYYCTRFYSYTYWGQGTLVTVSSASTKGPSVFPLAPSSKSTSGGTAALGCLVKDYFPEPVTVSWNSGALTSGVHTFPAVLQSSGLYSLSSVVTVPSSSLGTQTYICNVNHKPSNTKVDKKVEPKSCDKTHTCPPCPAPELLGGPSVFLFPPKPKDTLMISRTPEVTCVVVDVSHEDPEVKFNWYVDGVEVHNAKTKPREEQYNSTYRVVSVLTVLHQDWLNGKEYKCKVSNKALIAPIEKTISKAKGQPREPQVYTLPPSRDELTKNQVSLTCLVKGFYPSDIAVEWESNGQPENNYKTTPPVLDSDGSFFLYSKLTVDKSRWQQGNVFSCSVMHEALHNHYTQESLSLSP
light: DIVMTQSPLSLPVTPGEPASISCQASESLVHSNRNTYLHWYLQKPGQSPQLLIYKVSNRFSGVPDRFSGSGSGTDFTLKISRVEAEDVGVYYCSQNTHVPPTFGQGTKVEIE
notes: B3 variant; copies: 2 + 2
B12: GpH7-B3 P329F/GpL16-k0 (antibody, human IgG1)
heavy: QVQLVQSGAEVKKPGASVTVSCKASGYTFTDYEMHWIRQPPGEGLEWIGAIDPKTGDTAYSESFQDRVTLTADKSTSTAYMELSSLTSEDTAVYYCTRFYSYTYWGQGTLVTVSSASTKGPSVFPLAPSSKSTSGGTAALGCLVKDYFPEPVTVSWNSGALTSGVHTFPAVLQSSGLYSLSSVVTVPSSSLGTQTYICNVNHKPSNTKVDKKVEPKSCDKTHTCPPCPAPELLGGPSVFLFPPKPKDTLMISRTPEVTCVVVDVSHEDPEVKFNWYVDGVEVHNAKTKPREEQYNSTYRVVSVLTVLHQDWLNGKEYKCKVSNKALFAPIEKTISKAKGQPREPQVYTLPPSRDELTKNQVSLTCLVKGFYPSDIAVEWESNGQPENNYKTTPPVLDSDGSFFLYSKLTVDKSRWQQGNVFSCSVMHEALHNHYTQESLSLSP
light: DIVMTQSPLSLPVTPGEPASISCQASESLVHSNRNTYLHWYLQKPGQSPQLLIYKVSNRFSGVPDRFSGSGSGTDFTLKISRVEAEDVGVYYCSQNTHVPPTFGQGTKVEIE
notes: B3 variant; copies: 2 + 2

Key:
Test in all cases: SPR, captured antibody;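 note: antibody captured on a sensor chip, Fcγ receptor flowed over at 25 °C, receptor binding normalized to the captured antibody amount and expressed relative to the reference antibody ×100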
human FcγRIa = molecular target: T4, human FcγRIa (human, UniProt P12314 16-292, limits assumed)
T4 construct: also called FcgRIa; hFcgRIa
T4 sequence (P12314 16-292 limits assumed): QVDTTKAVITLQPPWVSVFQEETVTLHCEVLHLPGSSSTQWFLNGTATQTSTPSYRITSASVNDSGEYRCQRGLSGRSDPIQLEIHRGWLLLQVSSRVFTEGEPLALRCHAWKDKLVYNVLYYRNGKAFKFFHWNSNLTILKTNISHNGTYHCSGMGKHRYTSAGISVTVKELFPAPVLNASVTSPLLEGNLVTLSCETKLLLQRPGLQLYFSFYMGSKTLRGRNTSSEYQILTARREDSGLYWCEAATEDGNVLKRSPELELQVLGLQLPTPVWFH

human FcγRIIa(R) = molecular target: T1, human FcγRIIa(R)
human FcγRIIa(H) = molecular target: T2, human FcγRIIa(H)
human FcγRIIb = molecular target: T3, human FcγRIIb

Binder | relative binding activity (human FcγRIa) | relative binding activity (human FcγRIIa(R)) | relative binding activity (human FcγRIIa(H)) | relative binding activity (human FcγRIIb)
B1 | 98 % of GpH7-B3/GpL16-k0 | 73 % of GpH7-B3/GpL16-k0 | 42 % of GpH7-B3/GpL16-k0 | 78 % of GpH7-B3/GpL16-k0
B2 | 69 % of GpH7-B3/GpL16-k0 | 2 % of GpH7-B3/GpL16-k0 | 2 % of GpH7-B3/GpL16-k0 | 0 % of GpH7-B3/GpL16-k0
B3 | 99 % of GpH7-B3/GpL16-k0 | 83 % of GpH7-B3/GpL16-k0 | 67 % of GpH7-B3/GpL16-k0 | 82 % of GpH7-B3/GpL16-k0
B4 | 98 % of GpH7-B3/GpL16-k0 | 59 % of GpH7-B3/GpL16-k0 | 27 % of GpH7-B3/GpL16-k0 | 49 % of GpH7-B3/GpL16-k0
B5 | 9 % of GpH7-B3/GpL16-k0 | -2 % of GpH7-B3/GpL16-k0 | -1 % of GpH7-B3/GpL16-k0 | -3 % of GpH7-B3/GpL16-k0
B6 | 100 % of GpH7-B3/GpL16-k0 | 89 % of GpH7-B3/GpL16-k0 | 99 % of GpH7-B3/GpL16-k0 | 87 % of GpH7-B3/GpL16-k0
B7 | 84 % of GpH7-B3/GpL16-k0 | 37 % of GpH7-B3/GpL16-k0 | 9 % of GpH7-B3/GpL16-k0 | 35 % of GpH7-B3/GpL16-k0
B8 | 68 % of GpH7-B3/GpL16-k0 | 2 % of GpH7-B3/GpL16-k0 | 2 % of GpH7-B3/GpL16-k0 | 1 % of GpH7-B3/GpL16-k0
B9 | 99 % of GpH7-B3/GpL16-k0 | 49 % of GpH7-B3/GpL16-k0 | 55 % of GpH7-B3/GpL16-k0 | 38 % of GpH7-B3/GpL16-k0
B10 | 98 % of GpH7-B3/GpL16-k0 | 58 % of GpH7-B3/GpL16-k0 | 58 % of GpH7-B3/GpL16-k0 | 53 % of GpH7-B3/GpL16-k0
B11 | 89 % of GpH7-B3/GpL16-k0 | 22 % of GpH7-B3/GpL16-k0 | 21 % of GpH7-B3/GpL16-k0 | 13 % of GpH7-B3/GpL16-k0
B12 | 79 % of GpH7-B3/GpL16-k0 | 1 % of GpH7-B3/GpL16-k0 | 1 % of GpH7-B3/GpL16-k0 | 0 % of GpH7-B3/GpL16-k0
